The text below walks through data of patent publication US12356911B2, “Group of UDP-glycosyltransferase for catalyzing carbohydrate chain elongation and application thereof” (GSYNBIOT (SHANGHAI) CO., LTD, priority 2017, dated 2025).

To fix the notation:
B1: GT29-34: Ginseng UDP-glycosyltransferase, 446 amino acids, SEQ ID NO: 8 (protein)
chain: MDIEKGRIIIVMLPFLAHGHISPFFELAKHLSKRNCNIFLCSTPINLSSIKNRVSDKDSSASIKLVELHLPSSPDLPPHYHTTNGLPSHLMVPLRNAFETAAPTFSEILKTLNPDLLIYDFNPSWAPEIASSHNIPAVYFLTSAAATSSMGLHAFKNSGEKYPFPDFYDNSNITPEPPSADKMKLFHDFVACFKRSCDIILIKSFRELEGKYIDFLSTLSKKTLVPVGPLVQDPMGHDEDPKTGHLINWLDKRAESTVVFVCFGSEYFPSNEELEELAIGLEISMVSFILAVRFPEGEKKGILPEGFVQRVGDRGLVVEGWAPQARILGHSSTGGFVSHCGWSSIMESVKFGVPVIAMARHLDQPLNAKLAAEVGVGMEVMRDENGKYKREGIAEVIRKVVVEKSGEVMRRKARELSEKMKEKGEEEIDRAVEELVQICKKKKDAQ
modifications: misc_feature - GT29-34; Panax ginseng
B2: GT29-33: Ginseng UDP-glycosyltransferase, 448 amino acids, SEQ ID NO: 6 (protein)
chain: MDIEKGRISIVMLPFLAHGHISPFFELAKHLSKRNCNIFLCSTPINLSSIKNRVSDKDSSASIKLVELHLPSSPDLPPHYHTTNGLPSHLMVPLRNAFETAAPTFSEILKTLNPDLLIYDFNPSWAPEIASSHNIPAVYFLTSAAATSSMGLHAFKNSGEKYPFPDFYDNSNITPEPPSADKMKLFHDFVACFKRSCDIILIKSFRELEGKYIDFLSTLSKKTLVPVGPLVQDPMGHDEDPKTGHLINWLDKRAESTVVFVCFGSEYFPSNEELEELAIGLEISMVSFILAVRFPEGEKKGILPEGFVQRVGDRGLVVEGWAPQSRILGHSSTGGFVSHCGWSSIMESVKFGVPVIAMARHLDQPLNAKLAAEVGVGMEVMRDENGKYKREAIAEVIRKVVMEKNGEVMRRKARELSEKMKVKGEQEIGRAVEELVQICKKKKQHAQY
modifications: misc_feature - GT29-33; Panax ginseng
B3: GT29-23: Ginseng UDP-glycosyltransferase, 442 amino acids, SEQ ID NO: 124 (protein)
chain: MDNQEGRISIALLPFLAHGHISPFFELAKQLAKRNCNVFLCSTPINLSSIKNKDSSASIKLVELHLPSSPDLPPHYHTTNGLPSHLMVPLINAFETAGPTFSEILKTLNPDLLIYDFNPSWAPEIASSHNIPAVYFLTTAAASSSIGLHAFKNPGEKYPFPDFYDNSNNTPEPPSADNMKLLHDFIACFERSCDIILIKSFIELEGKYIDLLSTLSDKTLVPVGPLVQDPMGHNEDPKTEQIINWLDKRAESTVVFVCFGSEYFLSNEELEEVAIGLEISMVNFIWAVRLIEGEKKGVLPEGFVQRVGDRGLVVEGWAPHARILGHSSTGGFVSHCGWSSIAESMKFGVPVIAMARHLDQPLNGKLAAEVGVGMEVVRDENGKYKREGIAEVIRKVVVEKSGEVMRRKARELSEKMKEKGEEEIDRAVEELVQICKKKKDAQ
modifications: misc_feature - GT29-23; Panax ginseng
B4: GT29-36: Ginseng UDP-glycosyltransferase, 442 amino acids, SEQ ID NO.: 90 (protein)
chain: B3 chain with E5K, N52D, V88L, I91R, N169I, I202R, H320Q
modifications: Panax ginseng
B5: GT29-37: Ginseng UDP-glycosyltransferase, 442 amino acids, SEQ ID NO.: 92 (protein)
chain: B3 chain with N169I, I202R, M281T, V298I, H320Q, M405I, E422Q, V428L, A441E
modifications: Panax ginseng
B6: GT29-42: Ginseng UDP-glycosyltransferase, 444 amino acids, SEQ ID NO.: 94 (protein)
chain: MDNQEGRISIALLPFLAHGHISPFFELAKQLAKRNCNVFLCSTPINLSSIKNKDSSASIKLVELHLPSSPDLPPHYHTTNGLPSHLMVPLINAFETAGPTFSEILKTLNPDLLIYDFNPSWAPEIASSHNIPAVYFLTTAAASSSIGLHAFKNPGEKYPFPDFYDNSNNTPEPPSADNMKLLHDFIACFERSCDIILIKSFIELEGKYIDLLSTLSDKTLVPVGPLVQDPMGHNEDPKTEQIINWLDKRAESTVVFVCFGSEYFLSNEELEEVAIGLEISMVNFIWAVRLIEGEKKGVLPEGFVQRVGDRGLVVEGWAPQARILGHSSTGGFVSHCGWSSIMESVKFGVPVIAMARHLDQPLNAKLAAEVGVGMEVMRDENGKYKREAIAEVIRKVVMEKNGEVMRRKARELSEKMKVKGEQEIGRAVEELVQICKKKKQHAQY
modifications: Panax ginseng
B7: GT29-43: Ginseng UDP-glycosyltransferase, 442 amino acids, SEQ ID NO.: 96 (protein)
chain: MDNQKGRISIALLPFLAHGHISPFFELAKQLAKRNCNVFLCSTPINLSSIKDKDSSASIKLVELHLPSSPDLPPHYHTTNGLPSHLMLPLRNAFETAGPTFSEILKTLNPDLLIYDFNPSWAPEIASSHNIPAVYFLTTAAASSSIGLHAFKNPGEKYPFPDFYDNSNITPEPPSADNMKLLHDFIACFERSCDIILIKSFRELEGKYIDLLSTLSDKTLVPVGPLVQDPMGHNEDPKTEQIINWLDKMAESTVVFVCFGSEYFLSNEELEEVAIGLEISTVNFIWAVRLIEGEKKGILPEGFVQRVGDRGLVVEGWAPQARILGHSSTGGFVSHCGWSSIAESMKFGVPVIAMARHLDQPLNGKLAAEVGVGMEVVRDENGKYKREGIAEVIRKVVVEKSGEVIRRKARELSEKMKEKGEQEIDRALEELVQICKKKKDEQ
modifications: Panax ginseng

Positions count from the first letter of the chain named.

One series is described as follows: In vitro transglycosylation at C-20, CK as glycosyl acceptor, UDP-arabinose as donor. The conditions noted are these: crude enzyme (E. coli lysate supernatant); TLC, FIG. 17. In kind it is biochemical.
B1: the “product formation from CK and UDP-arabinose (Ginsenoside F3)” value is “can catalyze the first glycosyl of C-20 of CK to extend an arabinosyl to generate Ginsenoside F3”.

Consider B2, for which the “product formation from CK and UDP-arabinose (Ginsenoside F3)” value is listed as “can catalyze the first glycosyl of C-20 of CK to extend an arabinosyl to generate Ginsenoside F3”.

A short description of a further series: In vitro transglycosylation at C-20, Rd as glycosyl acceptor, UDP-glucose as donor. The series is classed as biochemical. The following applies: crude enzyme (E. coli lysate supernatant); TLC/HPLC, FIG. 2, 3, 11. The text has this:
(§1) Cell lysate of recombinant E. coli with empty vector pET28a was used as a control.
On to B1, for which the “product formation from Rd and UDP-glucose (Rb1)” value is “can catalyze the formation of Rb1”.

Regarding B2, the “product formation from Rd and UDP-glucose (Rb1)” value was “can catalyze the formation of Rb1”.

A further series is described as follows: In vitro transglycosylation at C-20, CK as glycosyl acceptor, UDP-glucose as donor. The series is classed as biochemical. The following applies: crude enzyme (E. coli lysate supernatant); TLC/HPLC, FIG. 2, 3, 12, 16.
Source text: as §1
As shown in FIG. 16: Protopanaxadiol Ginsenoside CK is used as a glycosyl acceptor, and UDP-glucose is used as a glycosyl donor.
Consider B1, for which the “product formation from CK and UDP-glucose (Gypenoside LXXV)” value is recorded as “can catalyze the formation of a new product”.

A short description of another series: In vitro transglycosylation at C-3, Rd as glycosyl acceptor, UDP-xylose as donor. In kind it is biochemical. The conditions noted are these: crude enzyme (E. coli lysate supernatant); TLC, FIG. 14.
In the case of B3, the “product formation from Rd and UDP-xylose (replacement of second glucose at C-3 with xylose)” value (“product formation from Rd and UDP-xylose” for short) was “can all catalyze the replacement of the second glucose at C-3 position of Rd with xylose”.

B4: the “product formation from Rd and UDP-xylose” value is reported as “can all catalyze the replacement of the second glucose at C-3 position of Rd with xylose”.

For B5, the “product formation from Rd and UDP-xylose” value is on record as “can all catalyze the replacement of the second glucose at C-3 position of Rd with xylose”.

Consider B6, for which the “product formation from Rd and UDP-xylose” value is recorded as “can all catalyze the replacement of the second glucose at C-3 position of Rd with xylose”.

Consider B7, for which the “product formation from Rd and UDP-xylose” value is “can all catalyze the replacement of the second glucose at C-3 position of Rd with xylose”.

A further series is described as follows: In vitro transglycosylation at C-3, Rh2 as glycosyl acceptor, UDP-glucose as donor. In kind it is biochemical. The conditions noted are these: crude enzyme (E. coli lysate supernatant); TLC, FIG. 13, FIG. 15.
Source text: as §1
On to B3, for which the “product formation from Rh2 and UDP-glucose (Rg3)” value (shortened to “product formation … (Rg3)”) is on record as “can all catalyze the extension of a glucosyl at the C-3 glycosyl of Rh2 to generate Rg3”.

Regarding B4, the “product formation … (Rg3)” value was “can all catalyze the extension of a glucosyl at the C-3 glycosyl of Rh2 to generate Rg3”.

On to B5, for which the “product formation … (Rg3)” value is reported as “can all catalyze the extension of a glucosyl at the C-3 glycosyl of Rh2 to generate Rg3”.

For the molecule B6, the “product formation … (Rg3)” value was “can all catalyze the extension of a glucosyl at the C-3 glycosyl of Rh2 to generate Rg3”.

As for B7, the “product formation … (Rg3)” value is reported as “can all catalyze the extension of a glucosyl at the C-3 glycosyl of Rh2 to generate Rg3”.
